Here are results for one substance from patent US20250177548A1, “FUSOGENIC PEPTIDE COMPOSITIONS AND METHODS OF CARGO DELIVERY” (CLEMSON UNIVERSITY, priority 2022, published 2025).

The target in data set [1] is T1, LHRH receptor (Homo sapiens, UniProt P30968).
T1 construct: endogenous in cells; host or cells: OVCAR3, CAOV3
T1 sequence (P30968 1-328): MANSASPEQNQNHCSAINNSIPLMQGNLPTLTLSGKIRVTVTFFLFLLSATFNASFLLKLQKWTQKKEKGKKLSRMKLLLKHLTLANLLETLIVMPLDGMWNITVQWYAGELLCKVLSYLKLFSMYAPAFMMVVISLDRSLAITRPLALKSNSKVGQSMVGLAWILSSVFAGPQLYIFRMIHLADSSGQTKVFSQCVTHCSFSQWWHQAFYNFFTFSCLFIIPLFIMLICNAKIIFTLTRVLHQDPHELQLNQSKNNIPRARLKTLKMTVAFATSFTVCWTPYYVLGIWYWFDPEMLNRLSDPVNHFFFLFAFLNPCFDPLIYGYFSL
The data set is described as follows: competitive binding assay with LHRH receptor antibody. The settings on record: OVCAR3 and CAOV3 cells, siNT-Cy5.5 complexes, 4 hours. The class given is cell-based. The procedure: To analyze the specificity of the LHRH-DIV3W tandem peptide targeting LHRH receptor, a competitive binding assay was performed by incubating OVCAR3 and CAOV3 cells with GnRHR primary antibody (1:100) in 1× PBS overnight at 4° C. after being blocked with a 1% bovine serum albumin solution for 30 minutes at room temperature. LHRH-DIV3W-siNT-Cy5.5 complexes were delivered after the overnight primary antibody incubation and incubated again for 4 hours. Secondary SuperSignal Alexa Fluor 488 antibodies were delivered dropwise to cells following Invitrogen SuperSignal protocols and left to incubate at room temperature for 30 minutes and subsequently stained with SuperSignal NucBlue Hoescht 33342 for an additional 30 minutes at room temperature. Cells were imaged at 20× and 40× using an Evos FL microscope (Thermo Fisher).

Data set [2] deals with CSNK2A1 mRNA. In words: qPCR of CSNK2A1 mRNA in OVCAR3 cells. The class given is cell-based. The procedure: qRT-PCR. Cells were seeded at 50,000 cells per well and treated with siRNA targeting CSNK2A1 (siCSNK2A1 #s3638, Thermo Fisher Scientific) at increasing N:P ratios and incubated for a total of 48 hours in McCoys 5A/DMEM-10% FBS. Treated cells were washed with 1×PBS at 24 hours and fresh media was added. RNAisolation was completed using a Qiagen Mini-RNeasy Kit (Qiagen, Hilden, Germany) according to the manufacturer's protocol. RNA isolation quality and quantity were measured through the Gen5 protocol using a Take3 plate (BioTek). RNA was reverse-transcribed using the QuantiTect Reverse Transcription kit (Qiagen). Quantitative real-time PCR was completed with a QuantStudio 3 qPCR system (Applied Biosystems) using Applied Biosystems TaqMan FAST Master Mix (Thermo Fisher) and CSNK2A1 (ID #Hs00751002_s1) and 18S (ID #Hs99999901_s1) predesigned TaqMan probes, according to the manufacturer's protocol.
Gene and Protein Knockdown. Bioactivity of siRNAs was determined via qPCR and western blot analysis. OVCAR3 or CAOV3 cells were seeded at 50,000 cells per well as previously described and treated with siRNA targeting CSNK2A1 and siNT at N:P ratios 30:1, 40:1, 50:1, 60:1, and 70:1. LHRH-DIV3W peptide complexed with either siNT or siCSNK2A1 was incubated for a total of 48 hours in RPMI 1640/DMEM-10% FBS, with one media exchange occurring after the 24-hour timepoint. Treated cells were washed with 1×PBS at 24 hours and fresh media was added. RNA isolation was completed using a Qiagen Mini-RNeasy Kit (Qiagen, Hilden, Germany) according to the manufacturer's protocol. RNA isolation quality and quantity was measured through the Gen5 protocol using a Take3 plate (BioTek). RNA was reverse transcribed using the QuantiTect Reverse Transcription kit (Qiagen) according to the manufacturer's protocol. Quantitative real-time PCR was completed with a QuantStudio 3 qPCR system (Applied Biosystems, Waltham, MA) using Applied Biosystems TaqMan FAST Master Mix (Thermo Fisher) and CSNK2A1 (ID #Hs00751002_s1) and 18S (ID #Hs99999901_s1) predesigned TaqMan probes according to the manufacturer's protocol.
A general note: In qPCR the cycle at which signal appears reflects the starting amount.

Data set [3] has as its system CK2α protein. In words: Western blot of CK2α in OVCAR3 cells. As to conditions: OVCAR3, 48 hours, 50:1 N:P ratio. In kind it is cell-based. The method, then: Western Blot. […] Cells were washed and treated with DIV3 (X)-siRNA complexes as previously described. Following the 48-hour treatment, cells were washed with 1× PBS and lysed with cold radioimmunoprecipitation assay (RIPA) buffer supplemented with protease inhibitor cocktail (Thermo Fisher). Protein concentrations were determined via bicinchoninic assay according to the manufacturer's protocol and absorbance was read at 562 nm. Equivalent protein concentrations for each treatment condition were separated by SDS-PAGE on a BioRad Stain-Free 10% gel according to BioRad protocols and transferred to a Stain-Free PVDF membrane using a wet transfer system. The PVDF membrane was cut at appropriate molecular weight intervals consistent with protein weights, then analyzed and blocked for 1 hour with 5% non-fat dried milk solution in 1× Tris-HCl-buffered-saline-0.1% Tween 20 (TBST) at room temperature. Blots were probed at 4° C. overnight with rabbit monoclonal anti-CK2α antibody (1:1000, Invitrogen) or mouse monoclonal anti-β-actin (1:10,000, Sigma-Aldrich, St. Louis, MO). […] Five additional washes with 1× TBST were performed and protein bands were detected with SuperSignal West Pico Plus Chemiluminescent Substrate (Thermo Fisher) and imaged using a BioRad ChemiDoc Imaging System.
On the technique in general: Immunoblotting shows a protein as a band on a membrane.

Data set [4] has as its system OVCAR3 cells.
Description: (§1) Cells were seeded at 10,000 cells per well with complete culture media in a 96-well plate and incubated overnight to allow the cells to attach. DIV3 (X) peptides were complexed with siNT at 40:1 to 80:1 N:P molar ratios. DIV3 (X)-siNT complexes were incubated with OVCAR3 or CAOV3 cells at a final concentration of 100 nM siRNA and 10% FBS for 24 hours. Media was then aspirated, cells were washed with 1× phosphate-buffered saline (PBS), and fresh media with 10% FBS was added to each well and incubated another 24 hours.
Viability was measured using an MTS Assay performed with CellTiter 96 AQueous One Solution Cell Proliferation Assay (Promega, Madison, WI). Assay reagent was added according to the manufacturer's protocol, and cells were incubated for 4 hours. Absorbance was read using a BioTek Synergy LX (BioTek, Winooksi, VT) plate reader at 490 nm. An MTS cell viability assay was also conducted as described for OVCAR3 and CAOV3 cells treated with DIV3W-siRNA complexes.
OVCAR3 or CAOV3 cells were seeded at 10,000 cells per well with complete culture media in a transparent 96-well plate and incubated overnight to allow the cells to attach. LHRH and LHRH-DIV3W peptides were delivered to cells without siRNA cargo. After 24 hours of incubation the media was exchanged and after another 24-hour incubation at 37° C. in 5% CO2, viability was measured using an MTS Assay performed with the CellTiter 96 AQueous One Solution Assay (Promega, Madison, WI). Assay reagent was added according to the manufacturer's protocol and cells were incubated for 4 hours. Absorbance was read using a BioTek Synergy LX (BioTek, Winooksi, VT) plate reader at 490 nm.
Data set [5] deals with CAOV3 cells.
Description: as §1
Viability was measured using an MTS Assay performed with CellTiter 96 AQueous One Solution Cell Proliferation Assay (Promega, Madison, WI). Assay reagent was added according to the manufacturer's protocol, and cells were incubated for 4 hours. Absorbance was read using a BioTek Synergy LX (BioTek, Winooksi, VT) plate reader at 490 nm. […]
OVCAR3 or CAOV3 cells were seeded at 10,000 cells per well with complete culture media in a transparent 96-well plate and incubated overnight to allow the cells to attach. […] After 24 hours of incubation the media was exchanged and after another 24-hour incubation at 37° C. in 5% CO2, viability was measured using an MTS Assay performed with the CellTiter 96 AQueous One Solution Assay (Promega, Madison, WI). […] Absorbance was read using a BioTek Synergy LX (BioTek, Winooksi, VT) plate reader at 490 nm.

“Also recorded” adds a separate entry of the source. Non-standard residues stand in square brackets, D forms with d. No end group written: not given here. pG = not defined here

Take “pGHWSY-(d) LLRPGGGGGWEADIVADIVWDIVADIVAGGG-(d) RRRRRRRRR ([pG]HWSY[dL]LRPGGGGGWEADIVADIVWDIVADIVAGGG[dR][dR][dR][dR][dR][dR][dR][dR][dR]; reading uncertain) [LHRH-DIV3W]”: in data set [1], the “siRNA internalization after preincubation with LHRH receptor antibody” value is listed as “siRNA internalization was drastically decreased; also recorded: minimal siRNA internalization”. Further, the “CSNK2A1 mRNA expression, % of negative control” value in data set [2] (50:1, vs LHRH-DIV3W-siNT) is listed as 59.75%±12.61%; in data set [2] (60:1, vs LHRH-DIV3W-siNT), 72.17%±23.19%; in data set [2] (70:1, vs LHRH-DIV3W-siNT) it was 51.88%±9.87%. For the same substance, the CK2α protein expression entry in data set [3] is recorded as “slight reduction in protein band intensity”. For the same substance, the “cytotoxicity of peptide alone” value in data set [4] and in data set [5] was “did not cause cytotoxic effects” throughout. Besides, the viability in data set [4] came to 109.66%+0.8%.
